The results in this text go back to US20230295327A1 (published 2023).

For test [1], the target named is T1, IL-12 receptor beta 1-biotin (IL-12Rβ1-Biotin; Acrobiosystems) (human, UniProt P42701 24-545, biotin (site not stated)). As to the kind of experiment: ELISA; control, flat curve. (In general: In an ELISA, binding on a coated surface is turned into a signal by an enzyme label.)
Test [2] deals with T2, recombinant human CD20 (human, UniProt P11836 1-297).
T2 chain: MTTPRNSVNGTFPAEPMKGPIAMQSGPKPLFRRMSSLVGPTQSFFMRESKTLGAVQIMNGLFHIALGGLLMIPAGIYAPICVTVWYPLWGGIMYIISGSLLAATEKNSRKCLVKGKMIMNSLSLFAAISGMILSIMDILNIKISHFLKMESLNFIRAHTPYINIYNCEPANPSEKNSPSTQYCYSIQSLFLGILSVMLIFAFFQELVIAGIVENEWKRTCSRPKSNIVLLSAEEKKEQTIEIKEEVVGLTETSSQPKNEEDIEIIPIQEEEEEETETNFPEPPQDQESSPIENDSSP
Description: SPR.

For test [3], the target named is T2, recombinant human CD20. As to the kind of experiment: SPR. (In general: In SPR one partner is held on a chip, and binding of the other changes the refractive index at the surface.)
In test [4] the target is T2, recombinant human CD20. As to the kind of experiment: SPR.
Test [5] addresses T1, IL-12 receptor beta 1-biotin …. Description: ELISA.

A word on the EC50: it is the midpoint of the concentration-response curve. For orientation: Kd means the free concentration of one partner at which half of the binding sites on the other are occupied at equilibrium, for simple one-to-one binding.

Where two headings read alike, the source gives them in different places.

B1: Rituximab (anti-hu CD20 monoclonal antibody) (antibody, V domains shown)
VH: QVQLQQPGAELVKPGASVKMSCKASGYTFTSYNMHWVKQTPGRGLEWIGAIYPGNGDTSYNQKFKGKATLTADKSSSTAYMQLSSLTSEDSAVYYCARSTYYGGDWYFNVWGAGTTVTVSA
VL: QIVLSQSPAILSASPGEKVTMTCRASSSVSYIHWFQQKPGSSPKPWIYATSNLASGVPVRFSGSGSGTSYSLTISRVEAEDAATYYCQQWTSNPPTFGGGTKLEIKR
In turn, B1 showed an EC50 in test [1] of 25.1 nM.

B2: T2.04 (anti-hu CD20/hu IL-12, hu IgG1 (2 + 1)) (bispecific antibody)
heavy: not shown
light: QIVLSQSPAILSASPGEKVTMTCRASSSVSYIHWFQQKPGSSPKPWIYATSNLASGVPVRFSGSGSGTSYSLTISRVEAEDAATYYCQQWTSNPPTFGGGTKLEIKGGGGSGGGGSGGGGSQIVLSQSPAILSASPGEKVTMTCRASSSVSYIHWFQQKPGSSPKPWIYATSNLASGVPVRFSGSGSGTSYSLTISRVEAEDAATYYCQQWTSNPPTFGGGTKLEIKRTVAAPSVFIFPPSDEQLKSGTASVVCLLNNFYPREAKVQWKVDNALQSGNSQESVTEQDSKDSTYSLSSTLTLSKADYEKHKVYACEVTHQGLSSPVTKSFNRGEC
chain: not shown
On to B2, for which the Kd with recombinant human CD20 [2] is 7.58 nM.

B3: T2.05 (anti-hu CD20/hu IL-12 mut2, hu IgG1 (2 + 1)) (bispecific antibody)
heavy: not shown
light: QIVLSQSPAILSASPGEKVTMTCRASSSVSYIHWFQQKPGSSPKPWIYATSNLASGVPVRFSGSGSGTSYSLTISRVEAEDAATYYCQQWTSNPPTFGGGTKLEIKGGGGSGGGGSGGGGSQIVLSQSPAILSASPGEKVTMTCRASSSVSYIHWFQQKPGSSPKPWIYATSNLASGVPVRFSGSGSGTSYSLTISRVEAEDAATYYCQQWTSNPPTFGGGTKLEIKRTVAAPSVFIFPPSDEQLKSGTASVVCLLNNFYPREAKVQWKVDNALQSGNSQESVTEQDSKDSTYSLSSTLTLSKADYEKHKVYACEVTHQGLSSPVTKSFNRGEC
chain: not shown
For B3, the Kd with recombinant human CD20 [2] was found to be 2.88 nM.

B4: T2.09 (anti-hu CD20/hu IL-12 mut2, hu IgG1 (2 + 1, LC scFv)) (bispecific antibody)
heavy: not shown
light: QIVLSQSPAILSASPGEKVTMTCRASSSVSYIHWFQQKPGSSPKPWIYATSNLASGVPVRFSGSGSGTSYSLTISRVEAEDAATYYCQQWTSNPPTFGGGTKLEIKRTVAAPSVFIFPPSDEQLKSGTASVVCLLNNFYPREAKVQWKVDNALQSGNSQESVTEQDSKDSTYSLSSTLTLSKADYEKHKVYACEVTHQGLSSPVTKSFNRGECGGGGSGGGGSGGGGSQVQLQQPGAELVKPGASVKMSCKASGYTFTSYNMHWVKQTPGRGLEWIGAIYPGNGDTSYNQKFKGKATLTADKSSSTAYMQLSSLTSEDSAVYYCARSTYYGGDWYFNVWGAGTTVTVSAGGGGSGGGGSGGGGSGGGGSQIVLSQSPAILSASPGEKVTMTCRASSSVSYIHWFQQKPGSSPKPWIYATSNLASGVPVRFSGSGSGTSYSLTISRVEAEDAATYYCQQWTSNPPTFGGGTKLEIK
chain: not shown
For B4, the Kd with recombinant human CD20 [3] is 3.67 nM.

B5: T2.08 (anti-hu CD20/hu IL-12, hu IgG1 (2 + 1, LC scFv)) (bispecific antibody)
heavy: not shown
light: QIVLSQSPAILSASPGEKVTMTCRASSSVSYIHWFQQKPGSSPKPWIYATSNLASGVPVRFSGSGSGTSYSLTISRVEAEDAATYYCQQWTSNPPTFGGGTKLEIKRTVAAPSVFIFPPSDEQLKSGTASVVCLLNNFYPREAKVQWKVDNALQSGNSQESVTEQDSKDSTYSLSSTLTLSKADYEKHKVYACEVTHQGLSSPVTKSFNRGECGGGGSGGGGSGGGGSQVQLQQPGAELVKPGASVKMSCKASGYTFTSYNMHWVKQTPGRGLEWIGAIYPGNGDTSYNQKFKGKATLTADKSSSTAYMQLSSLTSEDSAVYYCARSTYYGGDWYFNVWGAGTTVTVSAGGGGSGGGGSGGGGSGGGGSQIVLSQSPAILSASPGEKVTMTCRASSSVSYIHWFQQKPGSSPKPWIYATSNLASGVPVRFSGSGSGTSYSLTISRVEAEDAATYYCQQWTSNPPTFGGGTKLEIK
chain: not shown
In the case of B5, the Kd with recombinant human CD20 [3] stood at 2.08 nM.

B6: T2.01 (anti-hu CD20/hu IL-12, hu IgG1) (bispecific antibody)
heavy: not shown
light: QIVLSQSPAILSASPGEKVTMTCRASSSVSYIHWFQQKPGSSPKPWIYATSNLASGVPVRFSGSGSGTSYSLTISRVEAEDAATYYCQQWTSNPPTFGGGTKLEIKRTVAAPSVFIFPPSDEQLKSGTASVVCLLNNFYPREAKVQWKVDNALQSGNSQESVTEQDSKDSTYSLSSTLTLSKADYEKHKVYACEVTHQGLSSPVTKSFNRGEC
chain: not shown
Regarding B6, in the test with recombinant human CD20 [4], the Kd came out at 5.84 nM. Further, in test [5], the concentration for a half-maximal effect (EC50) was 16.2 nM.

B7: T2.02 (anti-hu CD20/hu IL-12 mut1, hu IgG1) (bispecific antibody)
heavy: not shown
light: QIVLSQSPAILSASPGEKVTMTCRASSSVSYIHWFQQKPGSSPKPWIYATSNLASGVPVRFSGSGSGTSYSLTISRVEAEDAATYYCQQWTSNPPTFGGGTKLEIKRTVAAPSVFIFPPSDEQLKSGTASVVCLLNNFYPREAKVQWKVDNALQSGNSQESVTEQDSKDSTYSLSSTLTLSKADYEKHKVYACEVTHQGLSSPVTKSFNRGEC
chain: not shown
B7: in the test with recombinant human CD20 [4], the Kd was 7.2 nM. The same molecule displayed an EC50 in test [5] of 17.6 nM.

B8: T2.11 (anti-hu CD20/anti-hu CD20-hu IL-12 mut2, hu IgG1 (2 + 1)) (antibody)
heavy 1: not shown
heavy 2: not shown
light: QIVLSQSPAILSASPGEKVTMTCRASSSVSYIHWFQQKPGSSPKPWIYATSNLASGVPVRFSGSGSGTSYSLTISRVEAEDAATYYCQQWTSNPPTFGGGTKLEIKRTVAAPSVFIFPPSDEQLKSGTASVVCLLNNFYPREAKVQWKVDNALQSGNSQESVTEQDSKDSTYSLSSTLTLSKADYEKHKVYACEVTHQGLSSPVTKSFNRGEC
On to B8, for which, in the test with recombinant human CD20 [3], the Kd was determined as 1390 nM.

B9: T2.07 (anti-hu CD20/hu IL-12 mut2, hu IgG1 (2 + 1, HC scFv)) (bispecific antibody)
heavy: not shown
light: QIVLSQSPAILSASPGEKVTMTCRASSSVSYIHWFQQKPGSSPKPWIYATSNLASGVPVRFSGSGSGTSYSLTISRVEAEDAATYYCQQWTSNPPTFGGGTKLEIKRTVAAPSVFIFPPSDEQLKSGTASVVCLLNNFYPREAKVQWKVDNALQSGNSQESVTEQDSKDSTYSLSSTLTLSKADYEKHKVYACEVTHQGLSSPVTKSFNRGEC
chain: not shown
B9: the Kd in the test with recombinant human CD20 [2] worked out at 2.84 nM.

B10: T2.10 (anti-hu CD20/anti-hu CD20-hu IL-12, hu IgG1 (2 + 1)) (antibody)
heavy 1: not shown
heavy 2: not shown
light: QIVLSQSPAILSASPGEKVTMTCRASSSVSYIHWFQQKPGSSPKPWIYATSNLASGVPVRFSGSGSGTSYSLTISRVEAEDAATYYCQQWTSNPPTFGGGTKLEIKRTVAAPSVFIFPPSDEQLKSGTASVVCLLNNFYPREAKVQWKVDNALQSGNSQESVTEQDSKDSTYSLSSTLTLSKADYEKHKVYACEVTHQGLSSPVTKSFNRGEC
On to B10, for which the Kd with recombinant human CD20 [3] amounted to 16.6 nM.

B11: T2.06 (anti-hu CD20/hu IL-12, hu IgG1 (2 + 1, HC scFv)) (bispecific antibody)
heavy: not shown
light: QIVLSQSPAILSASPGEKVTMTCRASSSVSYIHWFQQKPGSSPKPWIYATSNLASGVPVRFSGSGSGTSYSLTISRVEAEDAATYYCQQWTSNPPTFGGGTKLEIKRTVAAPSVFIFPPSDEQLKSGTASVVCLLNNFYPREAKVQWKVDNALQSGNSQESVTEQDSKDSTYSLSSTLTLSKADYEKHKVYACEVTHQGLSSPVTKSFNRGEC
chain: not shown
As for B11, the Kd in the test with recombinant human CD20 [2] was 11.5 nM.
